Patent US20150225464A1 (Affibody, published 2015)
Changes are numbered by the printed parent chain. Names may count otherwise.

How the values were obtained:
mouse serum albumin [1] = target: T1, mouse serum albumin (mouse, UniProt P07724 25-608); test: SPR Biacore2000 sensorgrams
T1 construct: Bought; also called MSA
Protocol: (§1) The binding of the ABD variants obtained in Example 1 to human serum albumin (HSA), rat serum albumin (RSA), cynomolgus serum albumin (CSA) and mouse serum albumin (MSA) was analyzed by surface plasmon resonance using a Biacore2000 instrument.

rat serum albumin [2] = target: T2, rat serum albumin (rat, UniProt P02770 25-608); test: SPR Biacore2000 sensorgrams
T2 construct: Bought; also called RSA
Protocol: as §1

human serum albumin [3] = target: T3, human serum albumin (human, UniProt P02768 25-609); test: SPR Biacore2000, HSA immobilized on CM-5, polypeptide as analyte, 1:1 Langmuir fit, relative values
T3 construct: Bought recombinant product; also called HSA; Albucult
Protocol: (§2) Biosensor analysis on a Biacore2000 instrument (GE Healthcare) was performed with HSA (Albucult®, Novozymes), CSA (purified in-house from cynomolgus serum), RSA (Sigma-Aldrich, Cat. No. A6272) and MSA (Sigma-Aldrich, Cat. No. A3559) immobilized by amine coupling onto the carboxylated dextran layer of the surfaces of CM-5 chips (research grade; GE Healthcare) according to the manufacturer's recommendations.
(§3) ABD variants were used as analytes and were injected in duplicates over the chip at three analyte concentrations (2.5, 10 and 40 nM). The association phase was 5 min followed by a long dissociation phase (60 min) to account at least partially for the slow off-rate of the ABD variants. […] Therefore, all KD's are given as relative KD values only.
(§4) After subtraction of reference surface and buffer injection, curves were fitted to a 1:1 (Langmuir) binding model using BlAevaluation software with correction for mass transfer and with RUmax set as a local parameter.

mouse serum albumin [4] = target: T1, mouse serum albumin; test: SPR Biacore2000, albumin immobilized on CM-5, polypeptide as analyte, relative KD
Protocol: as §2, §3, §4

human serum albumin [5] = target: T3, human serum albumin; test: as above
Protocol: as §2, §3, §4

cynomolgus serum albumin = target: T4, cynomolgus serum albumin (cynomolgus); test: as above
T4 construct: Purified from serum; also called CSA
Protocol: as §2, §3, §4

rat serum albumin [6] = target: T2, rat serum albumin; test: as above
Protocol: as §2, §3, §4

T3 sequence (P02768 25-609 limits assumed): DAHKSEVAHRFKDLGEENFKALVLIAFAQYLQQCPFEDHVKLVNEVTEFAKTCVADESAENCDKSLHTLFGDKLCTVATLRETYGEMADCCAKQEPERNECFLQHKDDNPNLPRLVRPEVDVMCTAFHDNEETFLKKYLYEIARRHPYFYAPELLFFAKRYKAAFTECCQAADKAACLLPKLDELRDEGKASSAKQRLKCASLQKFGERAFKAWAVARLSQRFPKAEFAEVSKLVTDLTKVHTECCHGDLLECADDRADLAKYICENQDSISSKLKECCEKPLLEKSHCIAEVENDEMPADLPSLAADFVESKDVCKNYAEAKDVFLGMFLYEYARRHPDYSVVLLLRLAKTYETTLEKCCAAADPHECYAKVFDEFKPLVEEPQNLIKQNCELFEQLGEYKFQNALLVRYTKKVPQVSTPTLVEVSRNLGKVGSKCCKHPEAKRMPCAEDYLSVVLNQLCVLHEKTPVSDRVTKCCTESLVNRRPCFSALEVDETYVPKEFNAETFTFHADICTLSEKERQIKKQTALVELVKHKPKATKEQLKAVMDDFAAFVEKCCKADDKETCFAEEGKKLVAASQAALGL
T2 sequence (P02770 25-608 limits assumed): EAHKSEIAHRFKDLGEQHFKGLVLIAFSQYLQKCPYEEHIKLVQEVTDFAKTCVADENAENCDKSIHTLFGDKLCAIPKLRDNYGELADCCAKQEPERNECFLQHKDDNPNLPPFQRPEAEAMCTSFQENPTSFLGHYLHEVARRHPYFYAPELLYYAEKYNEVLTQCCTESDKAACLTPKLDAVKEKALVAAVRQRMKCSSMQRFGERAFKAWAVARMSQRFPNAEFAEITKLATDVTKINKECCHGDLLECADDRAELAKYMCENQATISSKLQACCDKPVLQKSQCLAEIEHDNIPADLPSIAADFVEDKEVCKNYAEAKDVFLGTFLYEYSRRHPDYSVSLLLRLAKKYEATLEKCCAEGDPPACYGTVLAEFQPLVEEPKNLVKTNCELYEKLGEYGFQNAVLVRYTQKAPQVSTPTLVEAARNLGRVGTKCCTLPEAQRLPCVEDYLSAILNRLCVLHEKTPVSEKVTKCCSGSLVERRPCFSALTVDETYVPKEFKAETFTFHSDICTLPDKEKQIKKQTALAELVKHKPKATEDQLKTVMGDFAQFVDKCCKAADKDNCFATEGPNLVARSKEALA
T4 sequence (A2V9Z4 25-608): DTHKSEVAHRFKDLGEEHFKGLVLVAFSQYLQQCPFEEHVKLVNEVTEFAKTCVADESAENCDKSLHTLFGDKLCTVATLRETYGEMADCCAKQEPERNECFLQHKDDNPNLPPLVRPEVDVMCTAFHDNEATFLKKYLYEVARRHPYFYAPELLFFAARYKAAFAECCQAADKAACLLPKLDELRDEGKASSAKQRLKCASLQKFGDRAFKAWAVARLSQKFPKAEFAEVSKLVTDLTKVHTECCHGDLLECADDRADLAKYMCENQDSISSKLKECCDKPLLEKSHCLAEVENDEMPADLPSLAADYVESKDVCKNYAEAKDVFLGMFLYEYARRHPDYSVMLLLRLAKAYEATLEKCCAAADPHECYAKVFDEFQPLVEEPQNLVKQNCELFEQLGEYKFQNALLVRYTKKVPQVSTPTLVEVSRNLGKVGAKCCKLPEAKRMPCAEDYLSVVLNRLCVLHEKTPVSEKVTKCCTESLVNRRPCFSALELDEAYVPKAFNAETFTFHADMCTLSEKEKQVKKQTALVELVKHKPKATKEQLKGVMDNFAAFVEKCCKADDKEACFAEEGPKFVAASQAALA

B1: PEP06923 (designed binder)
chain: GSSLAEAKVLANRELDKYGVSDFYKRLINKAKTVEGVEALKLHILAALP
notes: also called ABD variant; control polypeptide
Mouse serum albumin [1]
  binding result: binds
Rat serum albumin [2]
  binding result: binds

B2: PEP12379 (designed binder)
chain: GSSLAEAKEAANAELDSYGVSDFYKNLIDKAKTVEGVEALKDAILAALP
notes: R23N against PEP07843 (position counted on the 46-mer without GSS); Control polypeptide, expressed in E. coli; also called ABD variant; R23N variant of PEP07843
Mouse serum albumin [1]
  binding result: binds
Rat serum albumin [2]
  binding result: binds
Human serum albumin [3]
  Kd: 0.014 nM
  koff: 2.36e-05 s⁻¹
  kon: 1.7e+06 M⁻¹ s⁻¹

B3: PEP12380 (designed binder)
chain: B2 chain with N26K
notes: Inventive variant; 46 residues with an N-terminal GSS extension; R23K against PEP07843 (position counted on the 46-mer without GSS); Expressed in E. coli; also called ABD variant; R23K variant of PEP07843
Mouse serum albumin [4]
  Kd: 0.117 nM
Human serum albumin [5]
  Kd: 7.5 pM
Cynomolgus serum albumin
  Kd: 0.011 nM
Rat serum albumin [6]
  Kd: 9.3 pM
Human serum albumin [3]
  Kd: 0.0075 nM
  koff: 2.62e-05 s⁻¹
  kon: 3.48e+06 M⁻¹ s⁻¹

B4: PEP12381 (designed binder)
chain: B2 chain with N26S
notes: Control polypeptide; 46 residues with an N-terminal GSS extension; R23S against PEP07843 (position counted on the 46-mer without GSS); Expressed in E. coli; also called ABD variant; R23S variant of PEP07843
Mouse serum albumin [1]
  binding result: binds
Rat serum albumin [2]
  binding result: binds
Human serum albumin [3]
  Kd: 0.017 nM
  koff: 3.08e-05 s⁻¹
  kon: 1.83e+06 M⁻¹ s⁻¹

B5: PEP07843 (designed binder)
chain: B2 chain with N26R
notes: single Arg at position 23 of the 46-mer; GSS extension at the N-terminus; also called ABD variant; control
Mouse serum albumin [4]
  Kd: 0.087 nM
Human serum albumin [5]
  Kd: 6.7 pM
Cynomolgus serum albumin
  Kd: 0.0098 nM
Rat serum albumin [6]
  Kd: 8.2 pM
Human serum albumin [3]
  Kd: 0.0067 nM
  koff: 2.99e-05 s⁻¹
  kon: 4.49e+06 M⁻¹ s⁻¹
